In paper PMC4414246:

Tests used:
Experiment in all cases: fluorescence polarization
U1A M51A = U1A M51A (UniProt P09012 10-89, M51A)
dK50dM51 E19S = dK50dM51 E19S (UniProt P09012 10-89, E19S;del50-51)
U1A L49A = U1A L49A (UniProt P09012 10-89, L49A)
U1A E19S = U1A E19S (UniProt P09012 10-89, E19S)
U1A = U1A (UniProt P09012 10-89)
U1A L49K = U1A L49K (UniProt P09012 10-89, L49K)
dK50dM51 E19K = dK50dM51 E19K (UniProt P09012 10-89, E19K;del50-51)
U1A M51K = U1A M51K (UniProt P09012 10-89, M51K)
U1A E19F = U1A E19F (UniProt P09012 10-89, E19F)
U1A E19A = U1A E19A (UniProt P09012 10-89, E19A)
U1A E19K = U1A E19K (UniProt P09012 10-89, E19K)
U1A E19S:Y13Q = U1A E19S:Y13Q (UniProt P09012 10-89, Y13Q;E19S)
U1A L49A:E19A = U1A L49A:E19A (UniProt P09012 10-89, E19A;L49A)
U1A E19A:N15V = U1A E19A:N15V (UniProt P09012 10-89, N15V;E19A)
U1A M51A:E19A = U1A M51A:E19A (UniProt P09012 10-89, E19A;M51A)
U1A E19S:N15V = U1A E19S:N15V (UniProt P09012 10-89, N15V;E19S)

Binder	Kd (U1A M51A)	Kd (dK50dM51 E19S)	Kd (U1A L49A)	Kd (U1A E19S)	Kd (U1A)	Kd (U1A L49K)	Kd (dK50dM51 E19K)	Kd (U1A M51K)	Kd (U1A E19F)	Kd (U1A E19A)	Kd (U1A E19K)	Kd (U1A E19S:Y13Q)	Kd (U1A L49A:E19A)	Kd (U1A E19A:N15V)	Kd (U1A M51A:E19A)	Kd (U1A E19S:N15V)
GGCAGATCTGAGCCTGGGAGCTCTCTGCC (structured_DNA) [TAR DNA]	179 ± 37.5 µM	59.9 ± 14.2 µM	88.2 ± 22 µM	91.9 ± 33.4 µM	146 ± 46 µM	19.5 ± 2.9 µM	29.8 ± 5.8 µM	54.3 ± 7.9 µM	156 ± 80 µM	100 ± 33.4 µM	12.3 ± 2 µM	–	–	–	–	–
AGCUUAUCCAUUGCACCGGAUAAGCU (structured_RNA) [U1hpII RNA]	–	–	< 0.01 µM	11.4 ± 1.6 µM	–	–	–	–	36.1 ± 6.8 µM	–	–	63.6 ± 8.9 µM	11.7 ± 2.1 µM	48.4 ± 12.4 µM	15.8 ± 2.7 µM	15.1 ± 2 µM
